How the values were obtained:
[1] = target: st_YfdX(YI), S. Typhi YfdX with Y100A and I137A (Salmonella enterica serovar Typhi); assay: […]; pH 6.0; […] (pH 6.0), 200 mM NaCl, 1 mM DTT, […]
[2] = target: st_YfdX(YI), S. Typhi YfdX with Y100A and I137A (Salmonella enterica serovar Typhi); assay: […]; pH 7.5; […] (pH 7.5), 200 mM NaCl, 1 mM DTT, […]
[3] = target: the molecule itself; assay: crystal structure; sitting-drop vapor diffusion at 18°C; crystal I and II at pH 4.6 (F222), crystal III at pH 5.0 (P222); crystals II and III from protein with 1 mM ZnCl2; the tetramer is seen in the crystal lattice
[4] = target: the molecule itself; assay: […]; pH 7.5; […] (pH 7.5), 200 mM NaCl, 1 mM DTT, […]
[5] = target: the molecule itself; assay: SEC-MALS; pH 10.0 (kp_YfdX, Supplementary Figure S1)
[6] = target: the molecule itself; assay: SEC-MALS; Superdex 75 Increase 10/300 GL; pH 6.0; st_YfdX proteins in 20 mM Bis-Tris-HCl (pH 6.0), 200 mM NaCl, 1 mM DTT, wild type at 10 and 30 mg/mL, mutants at 30 mg/mL; buffer and concentration of kp_YfdX not told

Molecule: st_YfdX(YI), S. Typhi YfdX with Y100A and I137A (domain or fragment)
- stoichiometry N [1]: 2
- stoichiometry N [2]: 2

B1: S. Typhi YfdX, residues 10-186 (st_YfdX), wild type (domain or fragment)
chain: MAATNMTDNVTLNNDKISGQAWQAMRDIGMSRFELFNGRTQKAEQLAAQAEKLLNDDSTDWNLYVKSDKKAPVEGDHYIRINSSITVAEDYLPAGQKNDAINKANQKMKEGDKKGTIEALKLAGVSVIENQELIPLQQTRKDVTTALSLMNEGKYYQAGLLLKSAQDGIVVDSQSVQLEHHHHHH
- stoichiometry N [3]: 4
- stoichiometry N [4]: 2

B2: K. pneumoniae YfdX (kp_YfdX), recombinant (natural protein)
chain: ATDSATAAPAAAATTQVQKEAADVLQVAVQGANAMRDIQFARLALFHGQPDSAKKLTDDAAALLAADDASWAKFVKTDAKAKMIADRYVIINASIALSEDYVATPEKESAIQSANEKLAKGDQKGAIDTLRLAGIGVIENQYLMPLNQTRKAVAQSQELLKAGKYYEANLVLKGAEEGIVVDSEMLVAGN
notes: YfdX of Klebsiella pneumoniae; Cloned into pET21a; PDB 3DZA (cited) holds a crystal structure of the same protein
- stoichiometry N [5]: 2
- stoichiometry N [6]: 4

Source: PMC6339873 (Frontiers in Microbiology, 2018)
